Measured values reported in patent publication US20250073347A1 (FORTVITA BIOLOGICS SINGAPORE PTE, published 2025).

Target: T1, human Claudin18.2 on cells (human, UniProt P56856-2 1-261)
T1 construct: whole, on cells; also called CLDN18.2; hCLDN18.2
Assay: flow cytometry on DANG-hCLDN18.2 cells, relative MFI (fold)
Description: The cells were centrifuged at 500 g for 5 min, and the cell medium was removed. […] The suspension was left to stand on ice for 30 min. The suspension was centrifuged at 500 g for 5 min, the supernatant was removed, and the cells were washed once with PBS. The goat anti-human Fc PE-labeled secondary antibody (SouthemBiotech, J2815-5H87B) was added at 100 µL/well. The resulting mixture was incubated on ice in the dark for 30 min. The mixture was centrifuged at 500 g for 5 min, the supernatant was removed, and the cells were washed once with PBS. The cells were resuspended in 50 μL of 1×PBS, and the suspension was loaded for FACS assay.

binding result: binds
B1: IEX019-02 (HB37A6-SYNtecan E conjugate) (antibody, human IgG1, kappa, V domains shown)
VH: EVQLLDSGGGLVQPGGSLRLSCAASGFTFSSYVMSWVRQAPGKGLNWVSTISHSGGSTYYADSVKGRFTISRDNSKNTLYLQMNSLRAEDTAVYYCAIDAPYYDILTGYRYWGQGTLVTVSS
VL: not shown
modifications: GlcNAc(Fuc)-6-N3-GalNAc at Asn297 conjugated to linker-payload compound 1 (cleavable linker, 2 exatecan); average DAR 3.52
notes: also called SYN-HB37A6-Ex
